The values below come from patent US20250122306A1 (SUTRO BIOPHARMA, published 2025).

In general, Kd refers to the constant that tells how readily two partners part at equilibrium. Read a high Kd as weaker binding. As a reminder, the koff is the first-order rate constant of dissociation. A high value points to a short-lived complex. One may read the kon as a measure of how fast the partners come together. Low readings indicate slower complex formation, high ones faster complex formation.

For assay [1], the target named is T1, human tissue factor (human TF, Lake Pharma) (human, UniProt P13726 33-251, limits assumed).
T1 construct: bought recombinant antigen; also called CD142
Kind of assay: Biacore SPR kinetics, ADC captured on anti-Fc, 1:1 Langmuir fit. The method, then: (§1) Anti-Fc polyclonal antibodies were immobilized onto a CM4 chip (Cytiva #BR100534) using amine coupling chemistry (Human Antibody Capture Kit, Cytiva #BR100839). The immobilization steps were carried out at a flow rate of […] in 1×HBS-EP+buffer (Cytiva #BR100669). The sensor surfaces were activated for 7 min with a mixture of NHS (0.05 M) and EDC (0.2 M). The Anti-Fc antibodies were injected over all 4 flow cells at a concentration of 25 μg/ml in 10 mM sodium acetate, pH 4.5, for 7 min. Ethanolamine (1 M, pH 8.5) was injected for 7 min to block any remaining activated groups. […] Off-rate and kinetic binding experiments were performed at 25° C. using 1×HBS-EP+buffer. Antibodies or ADCs were injected over the anti-Fc surface at a concentration of 3 μg/mL for 12 seconds at a flow rate of 10 μL/min on flow cells 2, 3 and 4, followed by a buffer wash for 30 seconds at the same flow rate. […] After capturing ligand (antibody) on the anti-Fc surface, the analyte (human TF, Lake Pharma; cynomolgus TF, Sino Bio #90885-C08H; mouse TF, R&D Systems #3178-PA) was bound for 180 seconds, followed by a 420 second dissociation phase at a flow rate of 50 μL/min. Between each ligand capture and analyte binding cycle, regeneration was carried out using 2 injections of 10 mM Glycine pH 2.0 for 30 seconds at 30 μL/min, followed by a 30 second buffer wash step. The data was fit with the Biacore T200 Evaluation software, using a 1-1 Langmuir binding model. KD (affinity, nM) was determined as a ratio of the kinetic rate constants calculated from the fits of the association and dissociation phases.
A general note: In SPR one partner is held on a chip, and binding of the other changes the refractive index at the surface.

For assay [2], the target named is T2, cynomolgus tissue factor (cynomolgus TF, Sino Bio #90885-C08H) (cynomolgus monkey, UniProt P13726 33-251 (human entry)).
T2 construct: bought recombinant antigen; also called cyno TF
T2 chain: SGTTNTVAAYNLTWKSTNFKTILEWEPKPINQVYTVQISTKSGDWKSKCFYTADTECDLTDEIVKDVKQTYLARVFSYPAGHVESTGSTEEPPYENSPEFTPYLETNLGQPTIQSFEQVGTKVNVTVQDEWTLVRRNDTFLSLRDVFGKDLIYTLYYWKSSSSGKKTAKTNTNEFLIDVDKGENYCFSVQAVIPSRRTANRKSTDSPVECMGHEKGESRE
Described as above. The method, then: as §1

The target of assay [3] is tissue factor reagent of the Tissue Factor Activity Assay Kit (Abcam #ab108906) (UniProt P13726 33-295, limits assumed). Briefly: cell-based or functional assay.
Chain of tissue factor reagent of the Tissue Factor Activity Assay Kit (Abcam #ab108906) (P13726 33-295 limits assumed): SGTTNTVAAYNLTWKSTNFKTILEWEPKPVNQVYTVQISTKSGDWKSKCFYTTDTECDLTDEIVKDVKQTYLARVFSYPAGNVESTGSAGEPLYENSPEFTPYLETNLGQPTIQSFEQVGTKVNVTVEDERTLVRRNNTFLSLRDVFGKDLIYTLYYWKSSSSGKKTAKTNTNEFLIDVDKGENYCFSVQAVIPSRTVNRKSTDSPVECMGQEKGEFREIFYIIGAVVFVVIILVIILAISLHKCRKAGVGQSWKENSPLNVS
For assay [4], the target named is T3, human tissue factor on cells (human, UniProt P13726 33-295).
T3 construct: cell-surface TF, transfected (HEK293T-humanTF) or endogenous (tumour lines, keratinocytes); the cell line is named under assay; also called HEK293T-humanTF; TF on BxPC3, primary human keratinocytes, NCI-H292, HCC1954, NCI-H1975
T3 sequence (P13726 33-295 limits assumed): as above
Kind of assay: flow cytometry on BxPC3 cells (TF positive), one-site fit of MFI. The source says:
HEK293T, BxPC3 cells (TF positive) and NCI-H1703 (TF negative) cells were obtained from ATCC (American Type Culture Collection) and maintained in DMEM: F12 (1:1), high glucose (Corning) supplemented with 10% heat-inactivated fetal bovine serum (ThermoScientific), 1× Penicillin/Streptomycin (Corning) and 2 mmol glutamax (Thermo Fisher Scientific). To generate cells that stably expressing human tissue factor (HEK293T-humanTF) or cynomolgus tissue factor (HEK293T-cynoTF), HEK293T cells were transfected with plasmid vectors that contain the corresponding protein sequence and stable clones were selected with puromycin.
For a fluorescence-activated cell sorting (FACS) cell-binding assay, cells were collected by Accutase and counted by the Vi-CELL Cell Viability Analyzersharvested and, then re-suspended in FACS buffer (DPBS buffer supplemented with 1% bovine serum albumin). A total of 200,000 cells in 100 μL were incubated on ice with 100 μL of anti-TF antibodies in each well of a 96-well plate. Cells were washed twice with ice-cold FACS buffer and then incubated on ice for 60 mins with 5 μg/mL Alexa 647-labeled donkey anti-human Fc antibody (Jackson ImmunoResearch). Unstained cells and cells stained with secondary antibody alone were used as controls. Cells were washed twice with FACS buffer and analyzed using a BD FACS Canto system. Geometric mean fluorescence intensities (MFI) were fitted using non-linear regression analysis with one site specific binding equation on GraphPad Prism (GraphPad Software; La Jolla, CA).

In assay [5] the target is T1, human tissue factor (human TF, Lake …). Kind of assay: Biacore SPR, single-point off-rate (100 nM antigen), antibody captured on anti-Fc. The method, then: (§2) Anti-Fc polyclonal antibodies were immobilized onto a CM4 chip (Cytiva #BR100534) using amine coupling chemistry (Human Antibody Capture Kit, Cytiva #BR100839). The immobilization steps were carried out at a flow rate of 25 μL/min in 1×HBS-EP+buffer (Cytiva #BR100669). The sensor surfaces were activated for 7 min with a mixture of N-hydroxysuccinimide (NHS, 0.05 M) and 1-ethyl-3-(3-dimethylaminopropyl)-carbodiimide (EDC, 0.2 M). The anti-Fc polyclonal antibodies were injected over all 4 flow cells at a concentration of 25 μg/mL in 10 mM sodium acetate, pH 4.5, for 7 min. Ethanolamine (1 M, pH 8.5) was injected for 7 min to block any remaining activated groups.
(§3) Off-rate and kinetic binding experiments were performed at 25° C. using 1×HBS-EP+buffer. Antibodies were injected over the anti-Fc surface at a concentration of 3 μg/mL for 12 seconds at a flow rate of 10 μL/min on flow cells 2, 3 and 4, followed by a buffer wash for 30 seconds at the same flow rate. Single point off-rate analysis was carried out using an antigen concentration of 100 nM. […] After capturing ligand (antibody) on the anti-Fc surface, the analyte (human TF, Lake Pharma; cynomolgus TF, Sino Bio #90885-C08H; mouse TF, R&D Systems #3178-PA) was bound for 180 seconds, followed by a 420 second dissociation phase at a flow rate of […]. Between each ligand capture and analyte binding cycle, regeneration was carried out using 2 injections of 10 mM glycine pH 2.0 for 30 seconds at 30 μL/min, followed by a 30 second buffer wash step.

Assay [6] concerns the target T2, cynomolgus tissue factor (cynomolgus …). The assay is described as above. On the procedure: as §2, §3

B1: Conjugate 7: 2900-A02 F241/F404 LP2 (antibody, human IgG1, kappa)
heavy: MEVQLVESGGGLVQPGGSLRLSCAASGFTISGYIIHWVRQAPGKGLEWVGYIDPSNGYTYYADSVKGRFTISADTSKNTAYLQMNSLRAEDTAVYYCARDDQSLSSPFDYWGQGTLVTVSSASTKGPSVFPLAPSSKSTSGGTAALGCLVKDYFPEPVTVSWNSGALTSGVHTFPAVLQSSGLYSLSSVVTVPSSSLGTQTYICNVNHKPSNTKVDKKVEPKSCDKTHTCPPCPAPELLGGPSVLFPPKPKDTLMISRTPEVTCVVVDVSHEDPEVKFNWYVDGVEVHNAKTKPREEQYNSTYRVVSVLTVLHQDWLNGKEYKCKVSNKALPAPIEKTISKAKGQPREPQVYTLPPSREEMTKNQVSLTCLVKGFYPSDIAVEWESNGQPENNYKTTPPVLDSDGSFLYSKLTVDKSRWQQGNVFSCSVMHEALHNHYTQKSLSLSPGK
light: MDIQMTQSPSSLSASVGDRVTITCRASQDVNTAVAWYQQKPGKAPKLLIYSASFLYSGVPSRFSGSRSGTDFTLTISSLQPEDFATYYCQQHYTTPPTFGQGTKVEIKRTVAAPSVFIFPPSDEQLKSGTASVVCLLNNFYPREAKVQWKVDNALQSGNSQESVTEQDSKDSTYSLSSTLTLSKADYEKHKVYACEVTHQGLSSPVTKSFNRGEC
modifications: pAMF at F241 and F404 (EU), each linked to LP2 (DBCO-beta-Glucuronide-PEG12-Exatecan)
notes: antibody-drug conjugate, DAR about 4; also called Trastuzumab LC SerOpt
In the case of B1, in assay [1], the Kd amounted to 4.11 nM, the koff was 0.00209 s⁻¹ and the kon worked out at 508000 M⁻¹ s⁻¹. In assay [2], this molecule displayed a Kd of 1.77 nM, a koff of 0.00103 s⁻¹ and a kon of 582000 M⁻¹ s⁻¹.

B2: SRP2901-B05 (antibody, V domains shown)
VH: QVQVQESGPGLVKPPGTLSLTCAVSGFSLSYYGVSWVRQPPGKGLEWIGTIDSSGRTYYNPSLKSRVTISNDNAPNTVSLKLSSVTAADTAVYYCARDFYGWNSGALDIWGQGTLVTVSS
VL: DLQLTQSPSTLSASVGDRVTITCRASQSVYSNKYLSWYQQKPGKAPKLLIYKASTLASGVPSRFSGSGSGTEFTLTISSLQPDDFATYYCAAAYSDDSDTAFGQGTKVEIK
notes: humanized rabbit antibody, variable regions fused to human IGHG1 and IGKC; also called 2842-G04 HC2/LC2
As for B2, in assay [3], the “FX conversion (% inhibition), 1000 nM antibody” value (“FX conversion (% inhibition)” below) stood at 0.62%. Besides, the “Bmax (MFI)” value in assay [4] was determined as 42800 MFI. In assay [4], this molecule displayed a Kd of 0.389 nM. Moreover, the koff in assay [5] turned out to be 0.000736 s⁻¹; in assay [6], 0.0017 s⁻¹.

B3: 2842-B01 HC1/LC1 (antibody, V domains shown)
VH: QVQVVESGGGLVKPGGSLRLSCAASGFSISSYDMSWIRQAPGKGLEWIGIIGSNGRTYYADSVKGRFTISRNTNENTVYLQMNSLRAEDTAVYYCARGLYDGTGNIWGQGTLVTVSS
VL: DLQMTQSPSSLSASVGDRVTITCRASQSVYGNNWLSWYQQKPGKAPKLLIYGASKLASGVPSRFSGSGSGTQFTLTISSLQPEDFATYYCQGTYYSGDWYFAFGQGTKVEIK
notes: humanized rabbit antibody, variable regions fused to human IGHG1 and IGKC
With B3, the “FX conversion (% inhibition)” value in assay [3] was -0.45%. In addition, the off-rate constant (koff) in assay [5] was 0.000727 s⁻¹; in assay [6], 0.00352 s⁻¹.

B4: 2842-B01 HC1/LC2 (antibody, V domains shown)
VH: QVQVVESGGGLVKPGGSLRLSCAASGFSISSYDMSWIRQAPGKGLEWIGIIGSNGRTYYADSVKGRFTISRNTNENTVYLQMNSLRAEDTAVYYCARGLYDGTGNIWGQGTLVTVSS
VL: ELVMTQSPPTLSLSPGERVTLSCRASQSVYGNNWLSWYQQKPGQAPRLLIYGASKLATSIPARFSGSGSGTQFTLTISSLQPEDFAVYYCQGTYYSGDWYFAFGQGTKVEIK
notes: as for B3
As for B4, the “FX conversion (% inhibition)” value in assay [3] is -0.99%. For the same molecule, the koff turned out to be 0.000691 s⁻¹ in assay [5] and 0.00142 s⁻¹ in assay [6].

B5: SRP2901-E03 (antibody, V domains shown)
VH: EVQLVESGGGLVQPGGSLRLSCAASGFSISSYDMSWVRQAPGKGLEWIGIIGSNGRTYYPDSVKGRFTISRDNSKNTVTLQMNSLRAEDTAVYYCARGLYDGTGNIWGQGTLVTVSS
VL: ELVMTQSPPTLSLSPGERVTLSCRASQSVYGNNWLSWYQQKPGQAPRLLIYGASKLATSIPARFSGSGSGTQFTLTISSLQPEDFAVYYCQGTYYSGDWYFAFGQGTKVEIK
notes: humanized rabbit antibody, variable regions fused to human IGHG1 and IGKC; also called 2842-B01 HC3/LC2
In the case of B5, the “FX conversion (% inhibition)” value in assay [3] is -0.84%. In addition, in assay [4], the “Bmax (MFI)” value turned out to be 35200 MFI and the affinity, expressed as Kd, was 0.386 nM. The molecule further had a koff in assay [5] of 0.000361 s⁻¹. The koff in assay [6] was determined as 0.000782 s⁻¹.

B6: SRP2901-F01 (antibody, V domains shown)
VH: QVQVVESGGGLVKPGGSLRLSCAASGFSISSYDMSWIRQAPGKGLEWIGIIGSNGRTYYADSVKGRFTISRNTNENTVYLQMNSLRAEDTAVYYCARGLYDGTGNIWGQGTLVTVSS
VL: DIQMTQSPSSLSASVGDRVTITCQASQSVYGNNWLSWYQQKPGKAPKLLIYGASKLASGVPSRFSGSGSGTDFTLTISSLQPEDFATYYCQGTYYSGDWYFAFGGGTKVEIK
notes: humanized rabbit antibody, variable regions fused to human IGHG1 and IGKC; also called 2842-B01 HC1/LC3
For B6, the “FX conversion (% inhibition)” value in assay [3] came to 0.77%. Besides, in assay [4], the “Bmax (MFI)” value is 25400 MFI and binding was characterised by a dissociation constant (Kd) of 0.61 nM. In assay [5], this molecule gave a koff of 0.00054 s⁻¹. The molecule further showed an off-rate constant (koff) in assay [6] of 0.00117 s⁻¹.

B7: SRP2901-D03 (antibody, V domains shown)
VH: EVQLVESGGGLVQPGGSLRLSCAASGFSISSYDMSWVRQAPGKGLEWIGIIGSNGRTYYPDSVKGRFTISRDNSKNTVTLQMNSLRAEDTAVYYCARGLYDGTGNIWGQGTLVTVSS
VL: DLQMTQSPSSLSASVGDRVTITCRASQSVYGNNWLSWYQQKPGKAPKLLIYGASKLASGVPSRFSGSGSGTQFTLTISSLQPEDFATYYCQGTYYSGDWYFAFGQGTKVEIK
notes: humanized rabbit antibody, variable regions fused to human IGHG1 and IGKC; also called 2842-B01 HC3/LC1
For B7, in assay [3], the “FX conversion (% inhibition)” value was -1.6%. In addition, in assay [4], the “Bmax (MFI)” value came out at 29100 MFI and the dissociation constant (Kd) was found to be 0.344 nM. Besides, the koff in assay [5] came to 0.000416 s⁻¹. The molecule also had a koff in assay [6] of 0.00187 s⁻¹.
